Source: article PMC7990499, “eIF2B conformation and assembly state regulate the integrated stress response” (eLife, 2021)

Columns and labels:
[1] = target: eIF2B(αβδγε)2 decamer (human) (UniProt Q14232)
[2] = target: eIF2B(αβδγε)2 decamer (human) (UniProt Q14232); test: fluorescence polarisation; displacement of FAM-ISRIB (2.5 nM) from 100 nM eIF2B(αβδγε)2 by titrated eIF2, eIF2-P, eIF2α or eIF2α-P; 30 min at 22°C; 20 mM HEPES-KOH pH 7.5, 100 mM KCl, 5 mM MgCl2, 1 mM TCEP; also timecourses with PKR or λ phosphatase at 5.6 μM eIF2α/eIF2α-P

t1/2 of BODIPY-FL-GDP exchange on eIF2 by 10 nM eIF2B(αβδγε)2 (GEF activity) at 0, 50, 100 and 250 nM eIF2-P (control 1.6 min) [1]	IC50 [2]	t1/2 of BODIPY-FL-GDP exchange on eIF2 by 10 nM eIF2B(αβδγε)2 (GEF activity) at 0, 0.2, 1 and 2 μM eIF2α-P (control 2.4 min) [1]	Substance
7.2 min	210 nM		phosphorylated heterotrimeric human eIF2 (eIF2-P) (from UniProt P05198 1-315; P20042 1-333; P41091 1-472) (complex)
	4000 nM	6.7 min	human phosphorylated eIF2α (eIF2α-P) (from UniProt P05198 1-315) (natural protein)
